Measurements: the nanobody polyreactivity screen of Harvey et al. (2022)

assay: yeast display, Sf9 membrane polyspecificity reagent, FACS + sequencing; frameworks hold sequencing errors
Method in brief: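 In a synthetic yeast display library (Saccharomyces cerevisiae BJ5465), nanobody expression was induced with galactose for 36–48 hours. FACS gates were set low and high (top ~1%) using anti-HA fluorescence for expression and streptavidin fluorescence for binding of the Sf9 membrane reagent. Each polyreactivity label is drawn from the gate of origin.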

Sequence	polyreactivity (PSR sort gate)
QVQLVESGGGLVQAGGSLRLSCASSGRIFSGNAMAWYRQAPGKEMEFVASISRSGGRTRYADSVKGRFTISRDNAKNTVYLQMNSLKPEDTAVYYCAADRSRRGHLTHGYWGQGTQVTVSS	high polyreactivity
QVQIVESGGGLVQAGRSLSLSCAASGYTFLPNVMGWYRQAPGKERELVAAIYSRGGRTYYADSVKGRFTISRDNAKNTVYLQMNSLKPEDTAVYYCAAYTRYTTGSAGIYRDDYWGQGTQVTVSS	high polyreactivity
QVQLVESGGGLVQAGGSLRLSCAASGSTFYYNAMGWYRQAPGKERELVAAISRSGGRTYYADSVKGRFTISRDNAKNTVYLQMNSLKPEDTAVYYCAADAPGHEYYYWGQGTQVTVSS	high polyreactivity
QVQLVESGGGLVQAGGSLRLSCAASGGIFGRYDMGWYRQAPGKERELVAAISKRGGSTYYADSVKGRFTISRDNAKNTVYLQMNSLKPEDTAVYYCNAAQSVELGYDYWGQGTQGTVSS	high polyreactivity
QVQHVESGGGLVQAGGSLRLSCSASGITFGYYAMGWYRQAPGKERELVAAIRSSGGSTYYADSVKGRFTISRDNAKNTVYLQMKSLKPEDTAVYYCNARYRKSSRPGYEPFERYYWGQGTQVTVSS	high polyreactivity
QVQLVESGGGLVQAGGSLRLSCAASGRIFSQYDMGWYRPAPGKERELVAAISGGVGTNYADSVKGRFTISRDNAKNTVYLQMNSLKPEDTAVYYCAADYSFERSEYEYWGQGTQVTVSS	low polyreactivity
QVQLVESGGVLVQAGGSLRLSCAASGRTFRYYAMGWYRQAPGKERELVAAITVTVTSTFYADSVKGRFTISRDNAKNTVYLQMNSLKPEDTAVYYCAKVDRQSPGQYYYWGQGTQVTVSS	low polyreactivity
QFQLVESGGGLVQAGGSLRLSCAASGLIFVINAMGWYRQAPGKERELDATISSGVSTNYADSVKGRFTISRDNAKNTVYLQMNSLKPEDTAVYYCNKDGVVEVRFTVRQEYDYWGQGTQVTVSS	low polyreactivity
QVQLVESGGGLVQAGGSLRLSCAASGSTFSTYAMGWYRQAPGKERELVAAITRRGGRTYYADSVKGRFTISRDNAKNTVYLQMNSLKPEDTAVYYCAKTSPVSDGYYWGQGTQVTVSS	high polyreactivity
QVQLVESGGGLVQAGGSLRLSCAASGFTFYTNAMGWYRQAPGKERELVAAISKRGASTYYADSVKGRFTISRDNAKNTFYLQMYSLKPEDTAVYYCAASSRTHGSYYYWGQGTQVTVSS	high polyreactivity
QVQLVESGGGLVQAGGSLRLSCAASGRIFKKYAMGWYRQAPGKERELVATISSGGSTYYADSVKGRFTISRDNSKNTVYLQMNSLKPEDTAVYYCARREYVRRDYFVTTYDYWGQGTQVTVSS	low polyreactivity
QVQLVESGGGLVQAGGILSLSCAASGSTFPYNAMGWYRQAPGIERQLVAAISSGGSTYYADSVKGRFTNSRDNAKNTVYLMMNRLKPEDTAVYYCAASWGKYIRSWGYGYWGQGTLVTVSS	high polyreactivity
QVQLVESGGGLVQAGGSLRLSCAASGFIFFINDMGWYRQAPGKERELVAAISWSGGSTYYADSVKGRFTISRDNAKNTVYLQMNSLKPEDTAVYYCAADWLIYDLSRFDYWGQGTQVTVSS	low polyreactivity
EVQLVESGGGLVQAGGSLRLSCAAYGFTFVVYDMGWYRQAPGKERELVAAISRRGGNTYYADSVKGRFTISRDNAKNTVYLQMNSLKPEDTAVYYCNAVRTRKAYDYWGQGTQVTVSS	low polyreactivity
QVQLVESGGGLVQAGGSLRLSCAATGFTFRFYAIGWYRQAPGKERELVAAISSRGTTTYYADSVKGRFTISRDNAKNTVYLQMNSLKPEDTAVYYCNKEYTTYGYDLEYDYWGQGTQVTVSS	low polyreactivity
QVQLVESGGGLVQAGGSLRLSCAASGFTFGVYAMGWYRQAPGKERELVAAISTTVGSTYYADSVKGRFTISRDNAKNTVYLQMNSLKPEDTAVYDCAAEYTGYINYYIYEYWGQGTQVTVSS	low polyreactivity
QVQLVESGGGLVQAGGSLRLSCAASGSTLSFKAMGWYRQAPGKERELVAGITYSGGSTYYADSVKGRFTISRDNAKNTVYLQMNSLKPEDTAVYYCNKASGVYYGHLDYWGQGTQVTVSS	low polyreactivity
